Tests used:
[1] = target: T1, human IGF-1R(1-903)-Fc (human, UniProt P08069 31-933); experiment: SPR, Fab over captured hIGF-1R-Fc
T1 construct: Made by Biogen Idec; Multimerises through IGF-1R and Fc; also called hIGF-1R-Fc; IGF-1R-Fc; not shown: C-terminal human IgG1-Fc tag
Procedure: (§1) Experiments were performed on a Biacore 3000 set to 25° C. using HBS-EP (Biacore, Cat. No. BR-1001-88) as the running buffer. An anti-human IgG-Fc antibody (2C11 from Biogenesis, Cat. No. 5218-9850) was immobilized to saturation on a Biacore CM5 chip (Cat. No. BR-1000-14) surface by injection at 500 nM in HBS-EP buffer. mIGF-1R-Fc or hIGF-1R-Fc was captured on the chip surface by injecting 40 μL of 20 nM receptor at 3 μL/min. […] Dissociation of Fab was measured for ˜27 minutes. Fab was serially diluted from 25 to 0.4 nM to obtain concentration dependent kinetic binding curves. Regeneration of the surface chip between each injection series was performed using 3×10 μL injections of 100 mM glycine pH 2.0 at 60 μL/min. Each curve was double referenced using (1) data obtained from a CM5 chip surface devoid of the anti-IgG antibody 2C11 and (2) data from a primary injection of receptor followed by a secondary injection of HBS-EP buffer.

[2] = target: T2, human IGF-1R(1-902)-His10 (human, UniProt P08069 31-932); experiment: SPR, Fab over captured IGF-1R-10His
T2 construct: Cy5-labelled in tr-FRET; also called hIGF-1R-His10; IGF-1R-His
Procedure: All surface plasmon resonance (SPR) experiments were performed on a Biacore 3000 set to 25° C. using HBS-EP (Biacore, Cat. No. BR-1001-88) as the running buffer. A biotin-labeled anti-HisTag antibody (biotin-PENTA-His, Qiagen Cat. No. 34440) was immobilized to saturation on a Biacore SA chip (Cat. No. BR-1000-32) surface by injection at 500 nM in HBS-EP buffer. […] Subsequent to IGF-1R injections, flow rates were increased to 20 μL/min. A second, 130 μL injection of anti-IGF-1R antibody or Fab was performed to investigate interactions with the receptor. Each antibody and Fab was serially diluted from 64 nM to 0.5 nM to obtain concentration dependent kinetic binding curves. Each injection series was regenerated using 3×10 μL injections of 10 mM Acetate, pH 4.0, at 20 μL/min. Each curve was double referenced using (1) data obtained from a streptavidin surface devoid of IGF-1R and (2) data from a primary injection of IGF-1R followed by a secondary injection of HBS-EP buffer. The concentration series for each antibody and Fab was fit to the 1:1 binding model provided within the BiaEvaluation software of the manufacturer.
To obtain discrete affinities, Fab fragments of each antibody were generated using papain digestion as described above.

[3] = target: T3, human INSR(28-956)-His10 (human, UniProt P06213 28-956); experiment: ELISA on coated rh-INSR
T3 construct: range 28-956; Bought (R&D Systems 1544-IR); also called rh-INSR; soluble insulin receptor
Procedure: ELISA assays were performed to determine specific binding of the Fab fragment antibodies to soluble IGF-1R over the insulin receptor. […] Color development was stopped by addition of 4NH₂SO₄ and optical density is measured at 450 nm using a Molecular Devices plate reader and binding curves are generated.

[4] = target: T4, hIGF-1R-Fc mutant SD108 (H480E) (human, UniProt P08069 31-933); experiment: SPR, Fab over captured mutant
T4 construct: not shown: C-terminal human IgG1-Fc tag

[5] = target: T5, hIGF-1R-Fc mutant SD113 (E570A, I571T) (human, UniProt P08069 31-933); experiment: SPR, Fab over captured mutant
T5 construct: not shown: C-terminal human IgG1-Fc tag

[6] = target: T6, hIGF-1R-Fc mutant SD109 (Y482A, R483W) (human, UniProt P08069 31-933); experiment: SPR, Fab over captured mutant
T6 construct: not shown: C-terminal human IgG1-Fc tag

[7] = target: T7, hIGF-1R-Fc mutant SD104 (H464A) (human, UniProt P08069 31-933); experiment: SPR, Fab over captured mutant
T7 construct: not shown: C-terminal human IgG1-Fc tag

[8] = target: T8, hIGF-1R-Fc mutant SD102 (E459A, S460A) (human, UniProt P08069 31-933); experiment: SPR, Fab over captured mutant
T8 construct: not shown: C-terminal human IgG1-Fc tag

[9] = target: T9, hIGF-1R-Fc mutant SD103 (D461A, V462T) (human, UniProt P08069 31-933); experiment: SPR, Fab over captured mutant
T9 construct: not shown: C-terminal human IgG1-Fc tag

[10] = target: T1, human IGF-1R(1-903)-Fc; experiment: SPR, Fab over hIGF-1R-Fc captured by anti-Fc, 1:1 model, apparent affinity
Procedure: as §1

B1: M13-C06 Fab (Fab, V domains shown)
VH: EVQLLESGGGLVQPGGSLRLSCAASGFTFSIYRMQWVRQAPGKGLEWVSGISPSGGTTWYADSVKGRFTISRDNSKNTLYLQMNSLRAEDTAVYYCARWSGGSGYAFDIWGQGTMVTVSS
VL: DIQMTQSPLSLSASVGDRVTITCQASRDIRNYLNWYQQKPGKAPKLLIYDASSLQTGVPSRFGGSGSGTDFSFTIGSLQPEDIATYYCQQFDSLPHTFGQGTKLEIK
notes: Human Fab from a phage library, kappa light chain
- koff [1]: 0.000833 s⁻¹
- kon [1]: 852000 M⁻¹ s⁻¹
- koff [2]: 0.0012 s⁻¹
- kon [2]: 880000 M⁻¹ s⁻¹
- binding result [3]: no binding (tested: 2 µM-0.2 nM)
- binding result [4]: no binding (tested: 10 nM)
- binding result [5]: no binding (tested: 10 nM)
- binding result [6]: no binding (tested: 10 nM)
- binding result [7]: no binding (tested: 10 nM)
- binding result [8]: no binding (tested: 10 nM)
- binding result [9]: no binding (tested: 10 nM)
- Kd [10]: 0.978 nM

Source: patent US20090291088A1 (Biogen, published 2009)
